Key:
[1] = target: biotin-labeled human TIGIT protein (human) (UniProt Q495A1); assay: ELISA blocking assay: CD155-hFc coated, biotin-labeled human TIGIT, antibody titrated
[2] = target: human TIGIT-His protein (human) (UniProt Q495A1); assay: ELISA, plate coated with human TIGIT-His, anti-human IgG-HRP, OD 450nm; unit taken from the axis Log[Conc.]/ng/ml
[3] = target: human TIGIT expressed on cells (human) (UniProt Q495A1); assay: flow cytometry on human TIGIT overexpressing cells, Alexa Fluor 647 anti-human IgG; fitted top of a flat control curve, unit from the y axis
Sequence of human TIGIT expressed on cells (human) (Q495A1 22-244): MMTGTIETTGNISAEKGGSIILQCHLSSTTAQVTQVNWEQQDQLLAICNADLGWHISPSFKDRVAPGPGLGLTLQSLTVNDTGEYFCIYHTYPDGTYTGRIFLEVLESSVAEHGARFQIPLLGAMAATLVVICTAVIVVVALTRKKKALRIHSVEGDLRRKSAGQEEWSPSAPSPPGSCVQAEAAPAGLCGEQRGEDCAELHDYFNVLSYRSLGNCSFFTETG

Sequence of human TIGIT-His protein (human) (Q495A1 22-141 limits assumed): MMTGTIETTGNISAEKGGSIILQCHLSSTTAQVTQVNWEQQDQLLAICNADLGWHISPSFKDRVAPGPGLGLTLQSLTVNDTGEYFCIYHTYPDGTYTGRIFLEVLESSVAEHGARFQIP
Sequence of biotin-labeled human TIGIT protein (human) (Q495A1 22-141 limits assumed): as above

| Substance | IC50 [1] [µg/mL] | EC50 [2] [µg/mL] | Top [3] [MFI] |
| --- | --- | --- | --- |
| Tiragolumab (RG6058, Roche) (antibody) | 0.531 | 0.00659 | – |
| total human IgG (antibody) | – | – | 110 |

Source: patent publication US11028172
